Consider 22 sequences from a protein production outcome set (Wang et al. 2014).

The nature of the data set: label from the status in PepcDB records.
“MDIDLSAFHFLRPWWLLAVPLAALLWWARRGERGAPGRDLRIAPALLPYLVLRTPGSRGPRPIDALALFLALGGVAAAGPAWQRDEPAYLDNVAPLIVALDLSASMDGADVPPTRLEAARRVLRDLAARRAAARTGLIAYAGSSHLVLPPTDDAALLDLFAQALATGLIERPGRDADGAIALAAQALAAERAGGTLLILTDGADRARMDAVRRQAQAARDMQVLVMAVGVNGIDTQALQELARAAGAALGSLTGGPDDQDWIALHAQAHFRAVQDAQSGPVHWKDAGYWLCWPLALLALLAVRRGWSVAWSAGVLVVAMAGMPQPARADALADAFLTADQQGRRAFEHGRYDAAARHFHDPNWKGRAAYQAGDYRAALAAFSTLPSAEGYFYVGNTQTRLHRYDAALAAYDRALALRPGWQPAVVNRGIVARLLAAMAQTQQDQPAEPPDRTIADRSAQAGKMSQAPVAQAGSEEAWLRNLTLSPARFLRSKFAVEDAAAGTRP”: the protein production result is “failed”.
In the case of “MDQKELQVRKEIQELSFLIFTEPNNYKHYYERGILYGGEHIKSTECRESDYHGDYSQAIEDFDKVIELQPNFANAYYHKACIYFDLGIDDDEAESLLEKALALEPNNSAYTIKYAEVITYHGENGDIAAELLEKVLVQDYSADNCILSAGYLLQYASYDFLIGNDVQALQTYQKAMKRLQHAVEKDHECLEYATNMWSDFAEGCGYDHESIKNGSSLLLPQISVWM”, the protein production entry was “failed”.
With “MADFVAASGQLGFWTYCLLMIGSVFSGMTLIGVAGLAFTTGYANVWERIIGPPFAIAFGTILIGYKLFNLKDKNGILTIQDYLAFRYDDPKIIRILAGLISAVTCFVYLIGQYTAIGVVSYVVLGIPYWLGAVIAAVIVVAYVMSGGMFSTAWTTFLQSILMLLGIYVTVPFIIAWVGGFEAMNQALAAMPEIQNATRGVAENFMFAKYLSKPFAPASVPLAGWVYNLTLFGITVPLGLMVAPHIVNNMLTFRKIEYTRWGPLVMYVIGFSAIFLTALAGMAARVAWAKGMIDIPSLTLGSIEVKWSDMAYPTIASKALPYWLFVLLLPTILAGVMSTTDRLILTAANNISYDVLRNALGKNLSENALKKVNMLVVPLIGFGSLLIALFPQQLLAWFIWAALSLMTNCFFFPIMLGLYWDRMTKNAARLSMIAGFVVTLATFAIYGKTIYIAGIPAYSVLPGFVASFVLAVGVSLLEKG”, the protein production result is “failed”.
Take “MKFFGFYRPIALIAGITVSASILTSVATAAESPTSFQAITPAFSSSSAPEADAEANTSEATADLLYVAENQLLIKLSNAVVEDVNGEILMKDNKGTLLENLTAELQAQPGFSIEKVDSHTALLTMNPDEVPDLQDWRCGVGALSGGVAGVVATGLALAALGVATGGTGFAVLAAGGLAGYGTGAVANC”: the protein production result was “failed”.
Consider “MSDCSFIIVGGGGHARVVASTLRRLGETILGFTDPDEEATLGDGIEHLGRDKILTEKDPSKVALTMGMGSVRDTGHRAGLFTEQVENGFRFPTLIHPDAVLASEAKTKAGVQVMAGGVIQPGASLGENVIVNTNASVDHDCQIGAHSHVASGATLSGEVVLESQVHVGTGASIIQGVDVGKNSVVGAGAVVIEDVPPETVVIGVPAHPK”, for which the protein production result is “failed”.
In the case of “MRDSFGDWAEKFLKSKEADGVSVSQLNSYKNYCRNHLSPLYMKSLSEILPADIQSIINETKLAKNTLKAIRNTASQIFRLAIENRAIDFNPADYVRIPKIALEHHHHHH”, the protein production result is listed as “not failed”.
On to “MKLIVAIVRPEKLNEVLEALFQAEVRGLTLSRVQGHGGETERVETYRGTTVKMELHEKVRLEIGVSEPFVKPTVEAILKAARTGEVGDGKIFVLPVEKVYRIRTGEEDEAAVTPVQ”, for which the protein production result is on record as “not failed”.
“SRFYEQHADCLAEQYTSLKFEDVHASWRAFWPQARDRVLDVGAGSGRDAKWMAEHGCEVIAIEPAQALLRFGKSYCGDSVTWLEDGLPKLEKTINLGFRFDLILVSAVWMHLAPTHRERAFRKLANLLAPNGRLVISLRHGDFSDGRKAYPVSVEELEKFAKNRALMVRNVS”: the protein production entry is given as “failed”.
Consider “MTLTKITAGKDDPDTGFAIATYNIHSCLGTDGAFRPDRVAQAIRALDADVIGLQEVGWALRGPSGFDQFAFLERETGYTVIPGLVRHHANAHFGNAILSRHPVESVAPLDLSLPYHSPRGGIDARIRVKGRSVRLINVHLGLIPLERRIQIRRIGLRLLDGWRGPALVCGDLNHWRRTSPAMQRLHRLLPGGVTGQTYPSALPTMMFDRILATGDLHLENHQVIRTEGTRVASDHLPLMAWFRFEGADVLSEDAA”, for which the protein production entry is “failed”.
Take “MEDVKGKEIIDDAPIDNKVSDEMESEENAIKKKYGGLLPKKIPLISKDHERAFFDSADWALGKQKGQKPKGPLEALRPKLQPTPQQQPRARRMAYSSGETEDTEIDNNEAPDDQACASAVDSTNLKDDGGAKDNIKS”: the protein production entry is reported as “failed”.
Turning to “MNAGHLKEAAALYAEIVALNPGWEHGTALYSLACCYEDLGELTSAEECYRRALSYEPESPTFIGGLASFLHLHGSQS”, the protein production entry is on record as “failed”.
Consider “ADGILVVDLKGNIEFCNQQFLKMWGIAPGFIDSHNDTETIQYVLNQLKNPEEFLKQIKELYNNPKQESFDELHFKDGKIFERYSQPHWLDN”, for which the protein production entry is “failed”.
“MSLTLRVLAPDQNVFDGSADEVILPSTTGQLGILPGHISLLTAIDVGVLRVRANGGWNSIALMGGFAEVDADEVTVLVNQAELGSTIDGNTAEADFQKATTVVDGLEGQPASPEKVKAQQQLNMARARMQASKSAD”: the protein production entry was “failed”.
For the sequence “MSLDSISLIKTPIEAELEDFKALFDTPLSDSNALLDSVITHIRKRNGKMMRPILVLLVARLYGAVTPATLHAAVSLELLHTASLVHDDVVDESTERRGQLSVNAIFNNKVSVLAGDYLLATSLVHAEQTNNYEIIRLVSSLGQKLAEGELLQLSNVSNHSFSEEVYFDVIRKKTAALFAACAEAAALSVQVGEEEVAFARLLGEYIGICFQIKDDIFDYFDSKKIGKPTGNDMLEGKLTLPALYALNTTKDAWAEQIAFKVKEGTATPDEIVRLIEFTKDNGGIEYACRTIEQYKKKAFDLLAALPDSNICLALRTYLDYVVAREKEGHHHHHH”, the protein production entry was “not failed”.
“MSASHFLTIIKPASLAVLLLLAAGFWVLHGFIMPIAWAVVLAFTVWPWYEHVYQRAPCWMRGGWLPLAMTLLMMVLLMVPATFGVLVLGHEVQMLHRLLIKVQSSGIGAPDWLIQLPWVGGWIKETWSETFGNPETIKNALNALGMGTVFSYTRDLAAQVLHRFMSGFVTLLALFFIFRDGHGLGRQILDRSVRLFGSAGARYARHAVTAVRGTVNGMLLVGIGKGVVLGLGYWAVGLSQPVLLGTLTAVVALVPFAAKLVFGAASIYLIVQGHAMAGIVLVVYGFIITLIADNYVRPTLIGGAANIPFLPTLLGIFGGVEAMGFVGLFIGPTVMAILISLWRDWNDETRLPSA”: the protein production result is on record as “failed”.
The value for “MLKKYIPLVARSFLAVIFIYAGVNKVFNFAQTSESMAKAGLPIVGVLLIFTIAFQILGGLSIILGYKAEIGAILLIIFLIPATIVFHNPFADPSQFNNFFKNLSIIGGLLLILAYGSGTLSLEASDRSSYVSQPEE” was “failed”; that for “MSQRLILFSRYPEPGRSKTRLIPALGPEGAADLQRQLTEWTVFTAHCWQARSPQTEVLIATSGGTSEAWQQWLGAVEVQPQAEGDLGDRLHQAFQDSWQVGCDRTVIIGSDCPQIEPHHLDEAFAVLQQADVVIGPASDGGYWLIGLSQPQPQLFQNIDWGSDRVLVQTLEAAQVADLQVAQLESLSDLDRPEDLNLWQPQPQLSVIITTLNEAANLPQTLALIGDAPVETLVVDGGSQDATVAIAQAWGAKVIHSPAGRGRQFNQGAAAAHGNILLFLHGDTRLPPRFWEHVLQTLQPPQVVAGAFQLQIDSPDWRLRWIERGVRWRSHWLQQPYGDQALFLSRDRWRAIGGFSTGPLLEDYRFVRQLRRQGTIAIASAAVMTSARRWQRRGVLQTTLLNQLILLAHHCGVSDQQLARWYR” was “failed”.
As for “MQKQAELYRGKAKTVYSTENPDLLVLEFRNDTSAGDGARIEQFDRKGMVNNKFNYFIMSKLAEAGIPTQMERLLSDTECLVKKLDMVPVECVVRNRAAGSLVKRLGIEEGIELNPPLFDLFLKNDAMHDPMVNESYCETFGWVSKENLARMKELTYKANDVLKKLFDDAGLILVDFKLEFGLYKGEVVLGDEFSPDGSRLWDKETLEKMDKDRFRQSLGGLIEAYEAVARRLGVQLD”, the protein production result is on record as “failed”.
The value for “MENVKVSVIVPVYNVETYLEEALMSLKNQTLKEIEFLIINDGSTDNSQKIIEEIAQDDPRFRVFNVKNGGIGKAFNLGVSEAKGEYIAEFESDDYVALHAYERLYNTAKSHHADVVRCNWVEFSSEEEVERDILWQYPDKYNQLIDLKTTDLIVQVYPWNAIYKKSMIEKENVTWDEEIKSYGDTGLFWKINSASQNVIFIKDCLYFYRQDNPNSTVNNVATKVPFLFQQFKLIRSNLIEQNKFERYKGYFYKQMFEKYFWAIEKLTHLRDESVYEVIQKVAVDFRQALETDQLNDIDFEYIKQFYQIANDPAAYYEDYLKNLYKVSVVMPIHNASKYLRQTLETVCEQSLREIEIILVENGSTDNTMDIINEFAVKDPRITGISIGKSNPGHARNVGISMARGRYLQFLDADDHFEANLLQDAYYRAYDSATDILLFGMKEKLPNGEVHVVHNPLLTNGGRMSGEEISLDEVTPYLYDKLFLLEYIKENNLVNLEQFVGEDAYFTYTALLGTEKIVALNKYLLTRIVRQDGLMSTYGMNYRDEFNLHDKMLEYLKQHAPNRIEAYRLKIINTLNWFIFDMNRVDQAFKERFYQELKEKYIQQLGLDLVKKEKYSNDPEQVERITRIQNILQYNLEIYQNIYKDFGMKKTFIIPNVHIQERGGKVIFGQEKTQGNGTAIEMFSIIIADNDTSNASGVIDFVYMGDNTKIIHDSLLVSLLIKKEGTTLKSIVLQAEWEKGYTLLQENMYYTFVDNVFTIWAGYTQKYAAFDYNVRILTSREGETHFSVVRQNQGYIQDTMTSIGNELTPINKIEGNEPTTIKKAVSKSLKKAKGLLK” was “failed”; that for “KGTLRRITEIAEVSGIEGESIQLNFLYKYDPAKDELIRTEVPSRFIQTLSYHTGLSIEELKWEIEKRRLILDWMIEKGIRRIDEVGYYIKEFYIDEEELLKKIE” was “failed”; that for “MGVNSQKSQGEDVSPDSNIETKEGTYVGLADTHTIEVTVDNEPVSLDITEESTSDLDKFNSGDKVTITYEKNDEGQLLLKDIERANLEHHHHHH” was “failed”.
As for “MMTITTDRTPPAAGAALDRNRSAYAGLADVLERAGLAEHALYLNWGYRPVDGQPDWAARELPPGELGRMQARLVLEVLGDTPLDGRRVLDVGCGRGGALALMGRLHAPAALAGADISAANIAYCRKRHTHPRLRFQIADACRLPYPDSSMDVVFNLESSGAYPDIGAFFHHVHRILRVGGRFCLADVFDADSVAWVRAALEQAGFTLERERSIPAQVRAARERASPGIWRRLDTALTALDAPGLRRELERYLAAPSSGLFQALEDGRVDYRLFHWRKTCPAAGRIDADVIARLATRSARLDAALQDRAPSAAAPQSPAPGPANASASAWFPFTAPDAQAGFNVFALPYAGGGASVYRAWTLPRRPGAAPWQLCPVQLPGRESRFGEPLIDDMATLADRLADAIGPYAHRPWALLGCSLGCKIAFEVARRFARQGRPPALLFLMACPAPGLPLGRRISTRAEADFAREVCHLGGTPPEVLADAEMMRTLMPILRNDSALAEHYVAAEDATVNVPIVMVAAGDDHLVTVEEARRWQRHAGAGFDWRLVDGGHFFLRQRRRELTDWLLDALRRGERTLPVQTTTTDVPDVPCSTPEQPRDPSRMPAPGASANLVLAPGEILVVTAPRSLAARLTPAVLSDDEQRQLARFAFDADRERYLAAHWAKRRVLGALLAAAPRSLRFGAQAGGKPYLIGEALHFSLSHSGDRVAVAVCRHAPVGVDIEQARGIACHASAARIMHPLDRIAPQCETPEDRFLAAWSLKEAVAKCTGAGLALPFDSLRLAFAGNGRYGCLLGTHAAWEAHHQHEDGVHLAVASATPWAALRILPLDAALAEG”, the protein production result is “failed”.
